Data reported in a protein production outcome set (Wang et al. 2014).

Test: label from the status in PepcDB records
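Also: failed if final PepcDB status was selected cloned or expressed and not failed if soluble or beyond.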

Which protein production does the source give for “MFYKEENFKKTEIGEIPEDWEIVELKDVCKKIKAGGTPKTSVEEYYKNGTIPFVKIEDITNSNKYLTNTKIKITEEGLNNSNAWIVPKNSVLFAMYGSIGETAINKIEVATNQAILGIIPKDNILESEFLYYILAKNKNYYSKLGMQTTQKNLNAQIVKSFKIPLPPLEEQKQIAKILTKIDEGIEIIEKSINKLERIKKGLMHKLLTKGIGHSRFKKSEIGEIPEDWEVFEIKDIFEVKTGTTPSTKKSEYWENGEINWITPLDLSRLNEKIYIGSSERKVTKIALEKCNLNLIPKGSIIISTRAPVGYVAVLTVESTFNQGCKGLFQKNNDSVNTEFYAYYLKFKKNLLENLSGGSTFKELSKSMLENFKIPLPPLEEQKQIAKILSSVDKSIELKKQKKEKLQRMKKKIMELLLTGKVRVKT” here?
The protein production was “not failed”.

With “MWDMKFVDRIDEAARLKDALAREKSSLVVMYGRRRLGKSTLIKRVLSENDVYFLADRSEGQHQRALLAKVIAQVFPDFEKLSYPDWESMFRAVNYRTDKRFTLCLDEFPYLVEQSPELPSVLQKLVDEKQLKYNLVLCGSSQNMMYGLFLDSTAPLYGRADEIMRLTPIRLPYIQEALNLNAMNAIEEYAIWGGVPRYWELRENRISLDDAMWHNILSVNGTLYEEPVKLFQDDVKDIVKTSTIMSYIGTGANRLSEIAARCNEPATNLSRPLKKLVDLGFLEKDVPFGIDEKNAKKSLYKIADPFMAFYYQFVVPNRSFIELGRRLPIEQALTAHFSEYVSMQWEKLCRDAVTGNLVNGVVYGKAKRWWGSVLNEDKKPEQVEFDVMAESLDKKYLLVGECKWTTGENGKQLTAELLRKANLLPFAKNYTIVPVLFLKNAPKDDAGNAMLSENVVELMK” as the sequence, how does the protein production read?
The protein production was “failed”.

For “MTSPSSAFPDGHGARLDAQSIRFERLLPGPIERVWAWLADADKRARWLAGGELPRQPGQTFELHFNHAALTAETAPARYAQYDRPIVARHTLLRCEPPRVLALTWGGGAGEAPSEVLFELSEAGEQVRLVLTHTRLADRAAMLDVAGGWHAHLAVLAGKLAGQAPPPFWTTLAQAEQDYEQRLLEHHHHHH”, which protein production is on record?
The protein production was “not failed”.

With “AIAEALWTNKIEDPLSLMSFTVPPLRLLSAAMWQVTERRQVKHYGMLEEFVSLVTETIPELLNQHQRAQLILGLRARHLLELCRGKHQGSLKEIQPHLKRLCRPRVNKEFADEDMEESEACFLDLVRTLISNPKEKEHYFQNIFPEEYGPKFDKNLHALMEDFLLKLDRMVSVPDLSETVSWLRTCPSLLDDCIDSVSVPKDMKSLLEHHTAKGNLQDSEGNNCTFSSQSLPPLVQVVISSDHTESGEPSDLNGQDNDDEQASKTSSDGWTIKKIKLKTETEEEDNDQNWPITEAKSTGTRDGYDDGCLGEEPNQTQS” as the sequence, how does the protein production read?
Its protein production is “failed”.

With “MSDAFTDVAKMKKIKEEIKAHEGQVVEMTLENGRKRQKNRLGKLIEVYPSLFIVEFGDVEGDKQVNVYVESFTYSDILTEKNLIHYLD” as the sequence, how does the protein production read?
The protein production was “not failed”.

Which protein production does the source give for “MSQSSKARLSTDPTVFEAVLNNHTPMMQQYLRIKAQHPDMLMFYRMGDFYELFFDDAEKAAKLLDITLTRRGTSAGEPIKMAGVPYHAAEQYLAKLVKLGESVVICEQVGDPATSKGPVERQVTRIITPGTLTDAALLEDKRDSALLALLVHESTLGLAWLNLAAGQFSVMETSVNNLTAELERLKPAEILLPESLNLAGINDRVIQEKLCVKHLPAWQFDTAAAVRNLSRQFGTHDLSGFGCEDLDVSLGAASALLDYTRLTQGASIGHIKGLRVEREDTYLRMDATTRRNLEISETIRGDAAPTLLSLLDTCSTNMGSRLLCHWLHHPLRDRGLIQNRLNGVSFLMGEAGSGPCLSVRDCLKRVTDIERITARIALKSARPRDLSGLRDSLKRLPAVNNAVAGTATTSSGGSDVSAHVAALIHSMAPDNALVALLEKSLKEEPEVMLRTGGVIADGYDAELDELRAIHNNCDEFLLQLETREKARTGIANLKVEYNRLHGFYIEVTHAHTEKIPDDYRRRQTLKNAERYITPELKAFEEKALSAQSRALEREKLLYGELLDMLSQYIDHLQQVARSVAELDVLATFAERALALDYSLPLFTSDSVIEIQAGRHPVVEKQVDSFIANDVQLGARTGGRRQMLVITGPNMGGKSTYMRQVALIALLAHCGSFVPARSALIGPLDQLFTRIGASDDLAGGRSTFMMEMTEAANILHNATAQSLVLMDEVGRGTSTFDGLALAFAIARYLLEKNRSYTLFATHYFELTRLAEEFAQVANVHLRAVEHKHHIVFLHAVNEGPASQSYGLQVAALAGVPDPVIRTARRYLLKLEQEALSNQPQGDLFSRDDLFWKQDRMPEGSVDKNDSAPEHPVLALLRTIVPDDLSPKQALEQLYGLKKAAEKE” here?
The protein production was “failed”.

With “MIHITSQACFLWHTTINKICNRPMFNPLTIRFWGVRGSIPCPGSHTVRYGGNTPCVEIQANGQRIILDGGTGLRVLGEHLMGQQPVTAHLFFTHTHWDHIQGFPFFQPAFVPGNQFHIYAVPGKNGQGIERRLNDQMLHPNFPVPLQIMGGDLRFYDLEVGERVHLGDGVVVSNEALNHPGGGVGYRVSWQGIHVAYITDTEHLPDRLHPGAFALADHADVMIYDATYTDEEYYHPQQSKVGWGHSTWQEAVKLAQAAQVKQLILFHHDPSHDDDCLDRIGELARAQFPQTLLAREGLIISVYPNVIHFPATPQASLEHHHHHH” as the sequence, how does the protein production read?
Its protein production is “failed”.

Which protein production does the source give for “MKNTIDVENDSIIAFTGGRIFTMDSEQKHAETVVINGGCIAAVGDRSILKSFPNAKIRDLKGRVLLPAFIDSHNHLSSFGCFFPTWANLIGLTEKGSVLEEIQLQTRKKPGKGWIVGFGWFDAKIGGVDLTKNDLDEISSDRPVLLIQATFHQSVVNSRALELVGITRSTPDPRCGIILRESDGMPTGVLVECAQVPVFRLAMEADTGTLANLIEAHAKELLKFGITAVHDPGVTPAAEAAYQKLHSEERLPVSVLMMPHGETILDNQLGYRLHGPVTGVGDERLRVGPVKLFADGATEETVAFSLKIGGQTINSGNYRDDFEEMLFAATEKGFRVCVHSFGNVTTDAVLTAFENAVTRAPAGFEMRPRLEHVTLISTSQIKRLAAMGGCACIQPQFLSRAQNTKQVVLDDGKWYAYGDLVKGGVTVASGSDNPGGFMDARDPIEGSVMGSTMSDGAGNAIFPDQVLPFEQWLWMYTAGGAYAGGQEKERGMLKKGMVADLVVLEGNLDPKNPPVVAETWVAGKQVYDHRV” here?
The protein production was “failed”.

For “MSTPRPSLTLTLLQAREAAMSFFRPSLNQHGLTEQQWRVIRILRQQGEMESYQLANQACILRPSMTGVLARLERDGIVRRWKAPKDQRRVYVNLTEKGQQCFVSMSGDMEKNYQRIQERFGEEKLAQLLELLNELKKIKP”, which protein production is on record?
The protein production was “not failed”.

Which protein production does the source give for “MAEASSLVGKLETEVEIKASAKKFHHMFTERPHHVSKATPDKIHGYGKLTVGKNKIEAVDPEKNLITFKVLEGDLMNEYKSFAFTLQVTPKQGESGSIAHWHLEYEKISEEVAHPETLLQFCVEISKEIDEHLLAEE” here?
Its protein production is “failed”.

Which protein production does the source give for “MDRIKSWEYDDVYNKFAIKDLDKSSFKRGSHIPIKVRKVFECEDIKYGDKKKITLIYKGEAFPAEIEGEIKGRIRMNWPKLIPKMKEVFKNEINDFEDSKELSVRVPRLKFTKETAIKYDVEMKTKYSHDVLCELERLDIDVENKTIEEINEVGEVIERVVKARKNQNKFREALFKRDGKCKICGLAHKELLIASHIKPWSKSTPEEKLNPFNGFLLCPNHDSLFDKHLISFKDNGEIIISKRLSEKEQELLSINKDIMINIEEGNKKFLKEHRDVFCKIEKAFDLEKELAISNKEIYNVELEV” here?
The protein production was “failed”.

With “MEDAAAPGRTEGVLERQGAPPAAGQGGALVELTPTPGGLALVSPYHTHRAGDPLDLVALAEQVQKADEFIRANATNKLTVIAEQIQHLQEQARKVLEDAHRDANLHHVACNIVKKPGNIYYLYKRESGQQYFSIISPKEWGTSCPHDFLGAYKLQHDLSWTPYEDIEKQDAKISMMDMLLSQSVALPPCTEPNFQGLTH” as the sequence, how does the protein production read?
The protein production was “failed”.

For “METRANYVIVGIFTLVAILAAFGFVYWTAAIGDRGETTLLRVRIPGSASGLGRGSFVLFNGVKVGDVKRVYIDVDNPTVAIADTEIDRLTPITKSTQADIGLAGLTGQANIELKGADPKEVKLLDQAEKEGKVAEIVANPSAVTNLLQTAQNIFSRADKVLSELEGFTRDVRGPLTQTVQNVQTFSDALAKNSDGIDKFLSSVSALSEELKGVSGKLDGTLKAAEGLLNAVDRDKIKSIVANVDTVTANLKQTSQQLDGVIKNVDTAVGSVNDFAKQTQGTLAKVDGVLDGVDPAQVRAALANIQKASENANKAAADIAVVTEKFANRADDIDQTIKDAKQLAQRLNDASVRVDGILARVDTLLGSGQADGLMADARDTLKSFKQVADTLNARLGVITDNLARFSGQGLSNVEALVQDSRRSITRIEEAVTDLSRNPQRILSGGDGEVRQFDGRARR”, which protein production is on record?
Its protein production is “failed”.
